Measurements reported in patent US8119364B2, “Methods for generating analogs of coenzyme A” (The Regents of the University of California, priority 2005, dated 2012).

Substrate: CC(C)(CO)[C@@H](O)C(=O)NCCC(=O)O
Test: Kinetic assay of pantetheine analogs as substrates of PanK
Assay type: biochemical
Conditions: other: compound as substrate of E. coli PanK
Description: As mentioned earlier, phosphorylation of the primary hydroxyl group of pantothenate by the first protein in the CoA biosynthesis pathway, PanK, is believed to be the rate limiting step in vivo. Jackowski and Rock, J. Bacteria 148:926, 1981. Due to its role as the gatekeeper of CoA biosynthesis, each of the new analogs was assayed for kinetic activity with PanK (Table 2).
The assay was performed as previously described using the prototypical bacterial PanK, CoAA from E. coli. Kumar and Aldrich, Org. Lett. 5:613, 2003. The reaction of CoAA with the natural substrate pantothenate gave values that conformed to those previously reported in the literature. Worthington and Burkart, Org. Biomol. Chem. 4:44, 2005; Strauss and Begley, J. Biol. Chem. 277:48205, 2002. […] Conversely, compounds with PEG linkers between the pantoic acid moiety and the bioorthogonal terminus were poor substrates for CoAA.

B1: E. coli PanK (CoAA) (Escherichia coli K-12) (protein)
chain: MSIKEQTLMTPYLQFDRNQWAALRDSVPMTLSEDEIARLKGINEDLSLEEVAEIYLPLSRLLNFYISSNLRRQAVLEQFLGTNGQRIPYIISIAGSVAVGKSTTARVLQALLSRWPEHRRVELITTDGFLHPNQVLKERGLMKKKGFPESYDMHRLVKFVSDLKSGVPNVTAPVYSHLIYDVIPDGDKTVVQPDILILEGLNVLQSGMDYPHDPHHVFVSDFVDFSIYVDAPEDLLQTWYINRFLKFREGAFTDPDSYFHNYAKLTKEEAIKTAMTLWKEINWLNLKQNILPTRERASLILTKSANHAVEEVRLRK
- Km: 28.56 ± 1.77 µM
- kcat: 0.521 ± 0.00967 s⁻¹
- kcat/Km: 18200 ± 680 M⁻¹ s⁻¹
